{
  "source": "paper PMC11350714",
  "about": "(JACS Au, 2024)",
  "proteins": {"B1": {"name": "MERS-CoV main protease (M^pro) (enzyme)", "chain": "SGLVKMSHPSGDVEACMVQVTCGSMTLNGLWLDNTVWCPRHVMCPADQLSDPNYDALLISMTNHSFSVQKHIGAPANLRVVGHAMQGTLLKLTVDVANPSTPAYTFTTVKPGAAFSVLACYNGRPTGTFTVVMRPNYTIKGSFLCGSCGSVGYTKEGSVINFCYMHQMELANGTHTGSAFDGTMYGAFMDKQVHQVQLTDKYCSVNVVAWLYAAILNGCAWFVKPNRTSVVSFNEWALANQFTEFVGTQSVDMLAVKTGVAIEQLLYAIQQLYTGFQGKQILGSTMLEDEFTPEDVNMQIMGVVMQ"}},
  "target": "the molecule itself",
  "test": "mass photometry",
  "data": [
    {"protein": "B1", "values": [
      {"measurement": "stoichiometry N", "value": 2}
    ]}
  ]
}
